Test results from patent US20150175710A1 (DEVELOPMENT CENTER FOR BIOTECHNOLOGY, published 2015).

How the values were obtained:
[1] = target: T1, human ENO1 protein (wild type) (human, UniProt P06733 1-434); assay: ELISA, ENO1 coated, EN10 mAb 2-fold serial dilution, four parameter logistic fit
T1 construct: Coated on ELISA plates; also called alpha-Enolase; enolase-1; not shown: source of the protein in Exampl

[2] = target: T1, human ENO1 protein (wild type); assay: ELISA, 400 ng human ENO1 coated, antibody serial dilution, four parameter logistic fit
[3] = target: T2, human ENO1 mutant D300 to alanine (human, UniProt P06733 1-434); assay: ELISA, mutant ENO1 coated, EN10 mAb 2-fold serial dilution, four parameter logistic fit
T2 construct: Expressed in E. coli; also called A300; not shown: His tag (Ni-agarose purified)
T2 sequence (P06733 other isoform, or with tags, fused parts or gaps mutant limits assumed): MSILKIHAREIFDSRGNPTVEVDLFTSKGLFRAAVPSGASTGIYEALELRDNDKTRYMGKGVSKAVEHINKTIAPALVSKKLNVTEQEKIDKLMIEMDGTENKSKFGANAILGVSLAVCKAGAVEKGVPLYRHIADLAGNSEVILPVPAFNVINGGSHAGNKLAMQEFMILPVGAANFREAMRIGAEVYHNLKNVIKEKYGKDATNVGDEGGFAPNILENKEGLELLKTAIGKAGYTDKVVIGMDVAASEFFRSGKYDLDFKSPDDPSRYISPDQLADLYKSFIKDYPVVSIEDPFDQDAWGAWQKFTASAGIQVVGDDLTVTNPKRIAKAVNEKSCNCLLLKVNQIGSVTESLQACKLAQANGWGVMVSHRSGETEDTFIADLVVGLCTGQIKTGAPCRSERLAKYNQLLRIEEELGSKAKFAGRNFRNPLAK

[4] = target: T3, human ENO1 mutant G302 to alanine (human, UniProt P06733 1-434); assay: as above
T3 construct: Expressed in E. coli; also called A302; not shown: His tag (Ni-agarose purified)
T3 sequence (P06733 other isoform, or with tags, fused parts or gaps mutant limits assumed): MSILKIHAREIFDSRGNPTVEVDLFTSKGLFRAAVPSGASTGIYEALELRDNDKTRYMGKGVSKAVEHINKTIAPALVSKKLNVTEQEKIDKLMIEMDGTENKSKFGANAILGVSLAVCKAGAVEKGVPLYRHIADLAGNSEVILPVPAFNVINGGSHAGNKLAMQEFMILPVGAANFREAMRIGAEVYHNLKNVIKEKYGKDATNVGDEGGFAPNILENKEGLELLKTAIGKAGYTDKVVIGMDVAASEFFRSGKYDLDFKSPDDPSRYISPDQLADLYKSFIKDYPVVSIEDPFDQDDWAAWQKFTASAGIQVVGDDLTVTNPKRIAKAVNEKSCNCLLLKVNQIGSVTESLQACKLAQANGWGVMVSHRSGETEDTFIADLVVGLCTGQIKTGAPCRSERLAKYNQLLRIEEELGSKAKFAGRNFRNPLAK

[5] = target: T4, human ENO1 mutant Q305 to alanine (human, UniProt P06733 1-434); assay: as above
T4 construct: Expressed in E. coli; also called A305; not shown: His tag (Ni-agarose purified)
T4 sequence (P06733 other isoform, or with tags, fused parts or gaps mutant limits assumed): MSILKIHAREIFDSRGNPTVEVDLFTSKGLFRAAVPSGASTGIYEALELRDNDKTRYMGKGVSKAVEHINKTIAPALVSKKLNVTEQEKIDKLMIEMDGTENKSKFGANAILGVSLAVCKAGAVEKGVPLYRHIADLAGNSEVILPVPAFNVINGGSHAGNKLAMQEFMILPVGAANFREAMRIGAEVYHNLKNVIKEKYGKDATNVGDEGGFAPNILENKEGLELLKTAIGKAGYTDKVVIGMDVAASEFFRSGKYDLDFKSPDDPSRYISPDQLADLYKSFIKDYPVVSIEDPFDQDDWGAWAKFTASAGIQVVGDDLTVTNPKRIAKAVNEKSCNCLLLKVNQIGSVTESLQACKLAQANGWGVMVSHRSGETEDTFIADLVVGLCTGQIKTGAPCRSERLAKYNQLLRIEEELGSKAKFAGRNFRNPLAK

[6] = target: T5, human ENO1 mutant K306 to alanine (human, UniProt P06733 1-434); assay: as above
T5 construct: Expressed in E. coli; also called A306; not shown: His tag (Ni-agarose purified)
T5 sequence (P06733 other isoform, or with tags, fused parts or gaps mutant limits assumed): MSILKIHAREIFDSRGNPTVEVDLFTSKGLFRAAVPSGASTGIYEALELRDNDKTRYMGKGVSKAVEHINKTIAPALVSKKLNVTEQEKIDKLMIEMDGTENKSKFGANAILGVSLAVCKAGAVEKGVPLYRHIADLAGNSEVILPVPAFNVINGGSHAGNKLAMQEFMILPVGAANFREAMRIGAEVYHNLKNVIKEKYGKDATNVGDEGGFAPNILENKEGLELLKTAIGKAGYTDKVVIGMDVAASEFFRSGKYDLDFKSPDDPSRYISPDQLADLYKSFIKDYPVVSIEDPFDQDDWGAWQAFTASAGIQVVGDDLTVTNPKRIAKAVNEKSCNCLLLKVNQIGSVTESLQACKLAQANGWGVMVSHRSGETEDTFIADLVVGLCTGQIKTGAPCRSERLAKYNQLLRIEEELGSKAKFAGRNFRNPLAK

[7] = target: T6, human ENO1 mutant A309 to glycine (human, UniProt P06733 1-434); assay: as above
T6 construct: Expressed in E. coli; not shown: His tag (Ni-agarose purified)
T6 sequence (P06733 other isoform, or with tags, fused parts or gaps mutant limits assumed): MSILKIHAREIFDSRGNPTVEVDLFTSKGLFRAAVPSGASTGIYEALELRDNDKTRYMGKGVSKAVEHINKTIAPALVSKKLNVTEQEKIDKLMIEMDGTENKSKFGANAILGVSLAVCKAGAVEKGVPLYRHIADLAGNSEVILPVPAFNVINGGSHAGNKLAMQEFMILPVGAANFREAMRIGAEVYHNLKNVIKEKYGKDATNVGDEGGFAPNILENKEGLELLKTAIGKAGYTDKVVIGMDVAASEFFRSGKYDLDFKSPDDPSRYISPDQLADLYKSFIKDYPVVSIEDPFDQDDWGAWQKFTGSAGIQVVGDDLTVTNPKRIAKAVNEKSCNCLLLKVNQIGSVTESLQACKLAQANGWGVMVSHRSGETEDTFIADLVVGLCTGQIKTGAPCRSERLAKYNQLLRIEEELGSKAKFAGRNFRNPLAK

[8] = target: T7, human ENO1 mutant K326 to alanine (human, UniProt P06733 1-434); assay: as above
T7 construct: Expressed in E. coli; also called A326; not shown: His tag (Ni-agarose purified)
T7 sequence (P06733 other isoform, or with tags, fused parts or gaps mutant limits assumed): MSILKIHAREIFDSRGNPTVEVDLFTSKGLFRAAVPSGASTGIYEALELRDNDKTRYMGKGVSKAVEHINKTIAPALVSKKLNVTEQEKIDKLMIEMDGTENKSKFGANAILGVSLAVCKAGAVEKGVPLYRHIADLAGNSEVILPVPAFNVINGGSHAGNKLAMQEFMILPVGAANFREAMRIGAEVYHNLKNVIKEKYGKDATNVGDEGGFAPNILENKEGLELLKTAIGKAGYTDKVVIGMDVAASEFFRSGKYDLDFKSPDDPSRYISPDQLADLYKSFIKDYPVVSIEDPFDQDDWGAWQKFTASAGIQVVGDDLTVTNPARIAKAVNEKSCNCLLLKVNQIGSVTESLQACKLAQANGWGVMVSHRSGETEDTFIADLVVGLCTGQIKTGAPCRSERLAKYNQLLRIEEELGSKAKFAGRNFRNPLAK

[9] = target: T8, human ENO1 mutant N333 to alanine (human, UniProt P06733 1-434); assay: as above
T8 construct: Expressed in E. coli; also called A333; not shown: His tag (Ni-agarose purified)
T8 sequence (P06733 other isoform, or with tags, fused parts or gaps mutant limits assumed): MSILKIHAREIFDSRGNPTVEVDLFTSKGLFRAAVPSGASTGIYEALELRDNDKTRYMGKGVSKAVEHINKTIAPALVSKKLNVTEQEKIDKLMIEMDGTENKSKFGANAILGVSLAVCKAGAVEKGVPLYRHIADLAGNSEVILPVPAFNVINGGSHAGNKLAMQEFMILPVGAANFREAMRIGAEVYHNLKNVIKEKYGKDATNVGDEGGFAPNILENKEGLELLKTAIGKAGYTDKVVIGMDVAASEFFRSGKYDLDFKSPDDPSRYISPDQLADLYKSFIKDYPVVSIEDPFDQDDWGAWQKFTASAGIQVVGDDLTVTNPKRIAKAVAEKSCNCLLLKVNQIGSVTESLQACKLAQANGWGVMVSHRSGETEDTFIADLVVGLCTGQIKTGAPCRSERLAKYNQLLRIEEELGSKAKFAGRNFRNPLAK

[10] = target: T9, human ENO1 mutant E334 to alanine (human, UniProt P06733 1-434); assay: as above
T9 construct: Expressed in E. coli; also called A334; not shown: His tag (Ni-agarose purified)
T9 sequence (P06733 other isoform, or with tags, fused parts or gaps mutant limits assumed): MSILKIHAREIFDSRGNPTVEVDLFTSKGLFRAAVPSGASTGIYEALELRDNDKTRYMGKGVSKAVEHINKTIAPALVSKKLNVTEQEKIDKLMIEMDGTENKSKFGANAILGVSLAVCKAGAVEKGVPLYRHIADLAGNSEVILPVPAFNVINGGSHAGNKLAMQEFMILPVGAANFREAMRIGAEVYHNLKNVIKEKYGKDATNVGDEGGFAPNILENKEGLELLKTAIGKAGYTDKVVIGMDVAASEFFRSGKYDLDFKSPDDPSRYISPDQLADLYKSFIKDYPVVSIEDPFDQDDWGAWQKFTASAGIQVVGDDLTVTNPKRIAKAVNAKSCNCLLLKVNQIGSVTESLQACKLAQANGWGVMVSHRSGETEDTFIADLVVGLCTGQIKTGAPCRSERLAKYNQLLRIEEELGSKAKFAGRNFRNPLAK

[11] = target: T10, human ENO1 mutant K335 to alanine (human, UniProt P06733 1-434); assay: as above
T10 construct: Expressed in E. coli; also called A335; not shown: His tag (Ni-agarose purified)
T10 sequence (P06733 other isoform, or with tags, fused parts or gaps mutant limits assumed): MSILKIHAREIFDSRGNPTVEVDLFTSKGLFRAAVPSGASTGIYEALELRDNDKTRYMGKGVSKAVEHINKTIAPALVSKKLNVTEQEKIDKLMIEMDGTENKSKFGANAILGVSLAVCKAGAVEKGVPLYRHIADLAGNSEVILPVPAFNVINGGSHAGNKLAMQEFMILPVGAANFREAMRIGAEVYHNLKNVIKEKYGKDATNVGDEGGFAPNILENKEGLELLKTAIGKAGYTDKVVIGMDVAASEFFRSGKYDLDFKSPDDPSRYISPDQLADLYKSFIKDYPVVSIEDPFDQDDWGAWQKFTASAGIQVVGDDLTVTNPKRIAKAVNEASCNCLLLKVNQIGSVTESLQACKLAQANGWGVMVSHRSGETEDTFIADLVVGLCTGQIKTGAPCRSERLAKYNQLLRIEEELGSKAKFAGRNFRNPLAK

T1 sequence (P06733 whole entry): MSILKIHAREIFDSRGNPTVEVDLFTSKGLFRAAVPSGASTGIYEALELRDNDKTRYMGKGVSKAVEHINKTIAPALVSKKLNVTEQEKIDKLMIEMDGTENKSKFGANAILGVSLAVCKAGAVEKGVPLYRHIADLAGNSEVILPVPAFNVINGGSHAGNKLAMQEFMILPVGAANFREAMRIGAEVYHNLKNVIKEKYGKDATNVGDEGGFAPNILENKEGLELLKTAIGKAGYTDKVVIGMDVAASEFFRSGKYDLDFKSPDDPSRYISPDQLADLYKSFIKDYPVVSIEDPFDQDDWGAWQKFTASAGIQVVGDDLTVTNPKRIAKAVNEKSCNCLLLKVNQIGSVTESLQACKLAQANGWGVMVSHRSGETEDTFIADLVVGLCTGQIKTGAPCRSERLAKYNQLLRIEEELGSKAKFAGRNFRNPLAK

Kd [1]: 0.443 nM | Kd [2]: 0.203 nM | Kd [3]: 63.3 nM | Kd [4]: 0.345 nM | Kd [5]: 0.331 nM | Kd [6]: 0.465 nM | Kd [7]: 5.63 nM | Kd [8]: 0.787 nM | Kd [9]: 0.413 nM | Kd [10]: 107 nM | Kd [11]: 9.57 nM
B1: anti-human ENO1 antibody EN10 mAb (antibody, V domains shown)
VH: EVQLQQSGPELVKPGASVKMSCKASGYTFTSCVMNWVKQKPGQGLEWIGYINPYNDGTKYNEKFKGKATLTSDKSSSTAYMELSSLTSEDSAVYYCAREGFYYGNFDNWGQGTTLTVSS
VL: DIQMTQSPASLSASVGETVTITCRASENIYSYLTWYQQKQGKSPQLLVYNAKTLPEGVPSRFSGSGSGTQFSLKINSLQPEDFGSYYCQHHYGTPYTFGGGTKLEITR
